Positions count from the first letter of the chain named. Numbers in names are those of the source.
Assays:
[1] = molecular target: Archaeoglobus fulgidus malate dehydrogenase mutant 3 (R102Q and P250I) (Archaeoglobus fulgidus); experiment: SEC-MALS; SEC-MALLS with refractometry; Enrich 650 column, 50 mM Tris-HCl pH 7.2, 50 mM NaCl, room temperature, 50 ul at ~1 mg/ml, 0.5 ml/min; self-association (dimer)
[2] = molecular target: Archaeoglobus fulgidus malate dehydrogenase mutant 2 (P250I) (Archaeoglobus fulgidus); experiment: as above
[3] = molecular target: Archaeoglobus fulgidus malate dehydrogenase mutant 1 (R102Q) (Archaeoglobus fulgidus); experiment: as above
purified protein [4] = substrate: CC(=O)C(=O)O; experiment: purified protein; assay type: biochemical, Archaeoglobus fulgidus; details: 0.5 mM NADH, MES pH 6.0, 50 mM NaCl, 70 °C (340 K in Figure 3)
[5] = molecular target: the molecule itself; experiment: SEC-MALS; SEC-MALLS with refractometry; Enrich 650 column, 50 mM Tris-HCl pH 7.2, 50 mM NaCl, room temperature, 50 ul at ~1 mg/ml, 0.5 ml/min; self-association (dimer)
purified protein [6] = substrate: O=C(O)CC(=O)C(=O)O; experiment: purified protein; assay type: biochemical, Archaeoglobus fulgidus; details: 0.5 mM NADH, 50 mM potassium phosphate pH 7.0, 50 mM NaCl
[7] = mutant 3, sigmoid (homotropic activation)
[8] = 70 °C (340 K in Figure 3), substrate inhibition at excess OAA
[9] = 70 °C (340 K in Figure 3), mutant 2, hyperbolic, text b25 gives 1.31 mM

Archaeoglobus fulgidus malate dehydrogenase mutant 3 (R102Q and P250I) (enzyme)
stoichiometry N [1]: 2

Archaeoglobus fulgidus malate dehydrogenase mutant 2 (P250I) (enzyme)
stoichiometry N [2]: 2

Archaeoglobus fulgidus malate dehydrogenase mutant 1 (R102Q) (enzyme)
stoichiometry N [3]: 2

B1: Wt A. fulgidus MalDH (Archaeoglobus fulgidus DSM 4304; P216I/R81Q) (protein)
chain: MKLGFVGAGRVGSTSAFTCLLNLDVDEIALVDIAEDLAVGEAMDLAHAAAGIDKYPKIVGGADYSLLKGSEIIVVTAGLAQKPGMTRLDLAHKNAGIIKDIAKKIVENAPESKILVVTNPMDVMTYIMWKESGKPRNEVFGMGNQLDSQRLKERLYNAGARNIRRAWIIGEHGDSMFVAKSLADFDGEVDWEAVENDVRFVAAEVIKRKGATIFGIAVAIYRMVKAVVEDTGEIIPTSMILQGEYGIENVAVGVPAKLGKNGAEVADIKLSDEEIEKLRNSAKILRERLEELGY
notes: full-length, codon-optimized synthetic gene in pET-20a (NdeI/BamHI), E. coli BL21 DE3 pLysS; no tag mentioned; homodimer, theoretical 72 kDa (SEC-MALLS 62-65 kDa)
K0.5 (purified protein [4]; [7]): 100 mM
kcat (purified protein [4]; [7]): 21 s⁻¹
kcat/Km (purified protein [4]; [7]): 210 M⁻¹ s⁻¹

B2: Wild-type Archaeoglobus fulgidus malate dehydrogenase (enzyme)
chain: B1 chain with Q81R, I216P
notes: synthetic gene codon-optimised for E. coli, in pET-20a (NdeI/BamHI); No tag is mentioned; purification was by heat treatment, ion exchange and gel filtration; Homodimer; also called Wt A. fulgidus MalDH; Wt enzyme; source: E. coli BL21 DE3 pLysS, purified (70 °C heat step, Q sepharose, gel filtration)
stoichiometry N [5]: 2
K0.5 (purified protein [6]; [8]): 0.1 mM
kcat (purified protein [6]; [8]): 417 s⁻¹
kcat/Km (purified protein [6]; [8]): 4.3e+06 M⁻¹ s⁻¹

B3: Wt A. fulgidus MalDH (Archaeoglobus fulgidus DSM 4304; P216I) (protein)
chain: B1 chain with Q81R
notes: as for B1
K0.5 (purified protein [6]; [9]): 1.3 mM
kcat (purified protein [6]; [9]): 175 s⁻¹
kcat/Km (purified protein [6]; [9]): 130000 M⁻¹ s⁻¹

B4: Wt A. fulgidus MalDH (Archaeoglobus fulgidus DSM 4304; R81Q) (protein)
chain: B1 chain with I216P
notes: as for B1
K0.5 (purified protein [6]; 70 °C, mutant 1, pH 7.0): 14 mM
kcat (purified protein [6]; 70 °C, mutant 1, pH 7.0): 12 s⁻¹
kcat/Km (purified protein [6]; 70 °C, mutant 1, pH 7.0): 900 M⁻¹ s⁻¹
K0.5 (purified protein [4]; mutant 1, pH 6.0): 5.6 mM
kcat (purified protein [4]; mutant 1, pH 6.0): 40 s⁻¹
kcat/Km (purified protein [4]; mutant 1, pH 6.0): 7100 M⁻¹ s⁻¹

Reference: publication PMC9486893, “Protein Conformational Space at the Edge of Allostery: Turning a Nonallosteric Malate Dehydrogenase into an “Allosterized” Enzyme Using Evolution-Guided Punctual Mutations” (Molecular Biology and Evolution, 2022)
